Data published in patent US11999805.

Key:
SpyCas9 (S. pyogenes) = SpyCas9 (S. pyogenes) (UniProt Q99ZW2); assay: cell-based or functional assay
Peptide 91 = tested on: T1, Peptide 91
T1 sequence: VYDFYRMLSHFFLKGPSR

90-1-18 = tested on: T2, 90-1-18
T2 sequence: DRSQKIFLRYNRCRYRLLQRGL

82-2-21 = tested on: T3, 82-2-21
T3 sequence: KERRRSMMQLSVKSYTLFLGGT

90-2-5 = tested on: T4, 90-2-5
T4 sequence: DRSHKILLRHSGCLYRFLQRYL

90-2-18 = tested on: T5, 90-2-18
T5 sequence: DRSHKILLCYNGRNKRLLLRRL

99-1-1 = tested on: T6, 99-1-1
T6 sequence: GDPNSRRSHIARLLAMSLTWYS

Peptide 63 = tested on: T7, Peptide 63
T7 sequence: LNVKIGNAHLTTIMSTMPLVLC

Peptide 15 = tested on: T8, Peptide 15
T8 sequence: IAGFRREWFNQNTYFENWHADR

82-2-12 = tested on: T9, 82-2-12
T9 sequence: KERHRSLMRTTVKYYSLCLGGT

60-1-10 = tested on: T10, 60-1-10
T10 sequence: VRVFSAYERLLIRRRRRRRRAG

50-2-13 = tested on: T11, 50-2-13
T11 sequence: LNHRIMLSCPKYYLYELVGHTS

Peptide 80 = tested on: T12, Peptide 80
T12 sequence: TESIRSYFAMTIRRNH

Peptide 82 = tested on: T13, Peptide 82
T13 sequence: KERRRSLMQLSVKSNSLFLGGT

Peptide 61 = tested on: T14, Peptide 61
T14 sequence: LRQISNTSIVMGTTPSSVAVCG

Peptide 50 = tested on: T15, Peptide 50
T15 sequence: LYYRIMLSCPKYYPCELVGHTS

Peptide 73 = tested on: T16, Peptide 73
T16 sequence: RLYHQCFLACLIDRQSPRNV

90-1-50 = tested on: T17, 90-1-50
T17 sequence: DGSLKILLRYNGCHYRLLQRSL

50-20-14 = tested on: T18, 50-20-14
T18 sequence: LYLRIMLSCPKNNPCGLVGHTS

63-2-27 = tested on: T19, 63-2-27
T19 sequence: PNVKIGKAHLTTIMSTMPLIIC

60-1-56 = tested on: T20, 60-1-56
T20 sequence: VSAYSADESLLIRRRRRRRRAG

Peptide 60 = tested on: T21, Peptide 60
T21 sequence: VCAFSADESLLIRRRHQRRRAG

50-2-16 = tested on: T22, 50-2-16
T22 sequence: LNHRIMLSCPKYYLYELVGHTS

Peptide 99 = tested on: T23, Peptide 99
T23 sequence: RRSHIAWLLAMSLTWYS

90-1-27 = tested on: T24, 90-1-27
T24 sequence: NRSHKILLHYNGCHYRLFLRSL

63-2-87 = tested on: T25, 63-2-87
T25 sequence: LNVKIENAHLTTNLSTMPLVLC

99-2-2 = tested on: T26, 99-2-2
T26 sequence: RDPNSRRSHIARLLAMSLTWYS

82-2-28 = tested on: T27, 82-2-28
T27 sequence: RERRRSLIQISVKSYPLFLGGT

Peptide 90 = tested on: T28, Peptide 90
T28 sequence: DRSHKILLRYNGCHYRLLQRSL

Question: With AcrIIA4 as the substance, how does the reduced editing (compared to plasmid control), A549 GFP reporter cells (SpyCas9 (S. pyogenes)) read?
Answer: 74%

Question: Which “% activity, FRET cleavage assay” value (Peptide 91) does the source give for SpyCas9 here?
Answer: Peptide 60, 90, and 91 significantly reduced activity of SauCas9 and SpyCas9 at 200 µM (P<0.005)

Question: What about the “substrate cleavage, FRET assay, peptide 200 to 12.5 µM” value (“substrate cleavage, FRET assay” below) (Peptide 91) of the same substance?
Answer: the peptides inhibited substrate cleavage in a peptide concentration-dependent manner

Question: And the “decrease in cleavage-based fluorescence at 200 µM peptide, FRET assay” value (from here on “decrease in cleavage-based fluorescence”) (90-1-18)?
Answer: All of the MPs drastically reduced SpyCas9 substrate cleavage at 200 µM with a greater than 88% decrease in fluorescence

Question: And the “substrate cleavage, denaturing 15% urea PAGE, peptide 200 µM” value (90-1-18)?
Answer: 17 hits were identified that reduced fluorescence and substrate cleavage in the Cas9 cleavage reaction (visualized by Gel) at 200 µM

Question: What about the “decrease in cleavage-based fluorescence” value (82-2-21) of the same substance?
Answer: All of the MPs drastically reduced SpyCas9 substrate cleavage at 200 µM with a greater than 88% decrease in fluorescence

Question: What about the “substrate cleavage, denaturing 15% urea PAGE, peptide 200 µM” value (82-2-21) of the same substance?
Answer: 17 hits were identified that reduced fluorescence and substrate cleavage in the Cas9 cleavage reaction (visualized by Gel) at 200 µM

Question: What about the “decrease in cleavage-based fluorescence” value (90-2-5) of the same substance?
Answer: All of the MPs drastically reduced SpyCas9 substrate cleavage at 200 µM with a greater than 88% decrease in fluorescence

Question: And the “substrate cleavage, denaturing 15% urea PAGE, peptide 200 µM” value (90-2-5)?
Answer: 17 hits were identified that reduced fluorescence and substrate cleavage in the Cas9 cleavage reaction (visualized by Gel) at 200 µM

Question: What about the “decrease in cleavage-based fluorescence” value (90-2-18) of the same substance?
Answer: All of the MPs drastically reduced SpyCas9 substrate cleavage at 200 µM with a greater than 88% decrease in fluorescence

Question: What about the “substrate cleavage, denaturing 15% urea PAGE, peptide 200 µM” value (90-2-18) of the same substance?
Answer: 17 hits were identified that reduced fluorescence and substrate cleavage in the Cas9 cleavage reaction (visualized by Gel) at 200 µM

Question: What about the “decrease in cleavage-based fluorescence” value (99-1-1) of the same substance?
Answer: All of the MPs drastically reduced SpyCas9 substrate cleavage at 200 µM with a greater than 88% decrease in fluorescence

Question: What about the “substrate cleavage, denaturing 15% urea PAGE, peptide 200 µM” value (99-1-1) of the same substance?
Answer: 17 hits were identified that reduced fluorescence and substrate cleavage in the Cas9 cleavage reaction (visualized by Gel) at 200 µM

Question: What about the “substrate cleavage, FRET assay” value (Peptide 63) of the same substance?
Answer: the peptides inhibited substrate cleavage in a peptide concentration-dependent manner

Question: And the “% activity, FRET cleavage assay” value (Peptide 15)?
Answer: Peptide15 significantly reduced activity of CjeCas9 and SpyCas9 and SauCas9 at 200 µM (P<0.01)

Question: What about the “substrate cleavage, FRET assay” value (Peptide 15) of the same substance?
Answer: the peptides inhibited substrate cleavage in a peptide concentration-dependent manner

Question: What about the “decrease in cleavage-based fluorescence” value (82-2-12) of the same substance?
Answer: All of the MPs drastically reduced SpyCas9 substrate cleavage at 200 µM with a greater than 88% decrease in fluorescence

Question: And the “substrate cleavage, denaturing 15% urea PAGE, peptide 200 µM” value (82-2-12)?
Answer: 17 hits were identified that reduced fluorescence and substrate cleavage in the Cas9 cleavage reaction (visualized by Gel) at 200 µM

Question: And the “decrease in cleavage-based fluorescence” value (60-1-10)?
Answer: All of the MPs drastically reduced SpyCas9 substrate cleavage at 200 µM with a greater than 88% decrease in fluorescence

Question: What about the “substrate cleavage, denaturing 15% urea PAGE, peptide 200 µM” value (60-1-10) of the same substance?
Answer: 17 hits were identified that reduced fluorescence and substrate cleavage in the Cas9 cleavage reaction (visualized by Gel) at 200 µM

Question: What about the “decrease in cleavage-based fluorescence” value (50-2-13) of the same substance?
Answer: All of the MPs drastically reduced SpyCas9 substrate cleavage at 200 µM with a greater than 88% decrease in fluorescence

Question: And the “substrate cleavage, denaturing 15% urea PAGE, peptide 200 µM” value (50-2-13)?
Answer: 17 hits were identified that reduced fluorescence and substrate cleavage in the Cas9 cleavage reaction (visualized by Gel) at 200 µM

Question: And the “substrate cleavage, FRET assay” value (Peptide 80)?
Answer: the peptides inhibited substrate cleavage in a peptide concentration-dependent manner

Question: What about the “substrate cleavage, FRET assay” value (Peptide 82) of the same substance?
Answer: the peptides inhibited substrate cleavage in a peptide concentration-dependent manner

Question: What about the “substrate cleavage, FRET assay” value (Peptide 61) of the same substance?
Answer: the peptides inhibited substrate cleavage in a peptide concentration-dependent manner

Question: And the “substrate cleavage, FRET assay” value (Peptide 50)?
Answer: the peptides inhibited substrate cleavage in a peptide concentration-dependent manner

Question: What about the “substrate cleavage, FRET assay” value (Peptide 73) of the same substance?
Answer: the peptides inhibited substrate cleavage in a peptide concentration-dependent manner

Question: What about the “decrease in cleavage-based fluorescence” value (90-1-50) of the same substance?
Answer: All of the MPs drastically reduced SpyCas9 substrate cleavage at 200 µM with a greater than 88% decrease in fluorescence

Question: And the “substrate cleavage, denaturing 15% urea PAGE, peptide 200 µM” value (90-1-50)?
Answer: 17 hits were identified that reduced fluorescence and substrate cleavage in the Cas9 cleavage reaction (visualized by Gel) at 200 µM

Question: What about the “decrease in cleavage-based fluorescence” value (50-20-14) of the same substance?
Answer: All of the MPs drastically reduced SpyCas9 substrate cleavage at 200 µM with a greater than 88% decrease in fluorescence

Question: And the “substrate cleavage, denaturing 15% urea PAGE, peptide 200 µM” value (50-20-14)?
Answer: 17 hits were identified that reduced fluorescence and substrate cleavage in the Cas9 cleavage reaction (visualized by Gel) at 200 µM

Question: What about the “decrease in cleavage-based fluorescence” value (63-2-27) of the same substance?
Answer: All of the MPs drastically reduced SpyCas9 substrate cleavage at 200 µM with a greater than 88% decrease in fluorescence

Question: And the “substrate cleavage, denaturing 15% urea PAGE, peptide 200 µM” value (63-2-27)?
Answer: 17 hits were identified that reduced fluorescence and substrate cleavage in the Cas9 cleavage reaction (visualized by Gel) at 200 µM

Question: And the “decrease in cleavage-based fluorescence” value (60-1-56)?
Answer: All of the MPs drastically reduced SpyCas9 substrate cleavage at 200 µM with a greater than 88% decrease in fluorescence

Question: And the “substrate cleavage, denaturing 15% urea PAGE, peptide 200 µM” value (60-1-56)?
Answer: 17 hits were identified that reduced fluorescence and substrate cleavage in the Cas9 cleavage reaction (visualized by Gel) at 200 µM

Question: What about the “% activity, FRET cleavage assay” value (Peptide 60) of the same substance?
Answer: Peptide 60, 90, and 91 significantly reduced activity of SauCas9 and SpyCas9 at 200 µM (P<0.005)

Question: What about the “substrate cleavage, FRET assay” value (Peptide 60) of the same substance?
Answer: the peptides inhibited substrate cleavage in a peptide concentration-dependent manner

Question: What about the “decrease in cleavage-based fluorescence” value (50-2-16) of the same substance?
Answer: All of the MPs drastically reduced SpyCas9 substrate cleavage at 200 µM with a greater than 88% decrease in fluorescence

Question: What about the “substrate cleavage, denaturing 15% urea PAGE, peptide 200 µM” value (50-2-16) of the same substance?
Answer: 17 hits were identified that reduced fluorescence and substrate cleavage in the Cas9 cleavage reaction (visualized by Gel) at 200 µM

Question: What about the “% activity, FRET cleavage assay” value (Peptide 99) of the same substance?
Answer: Peptide 99 significantly reduced activity of all three Cas9 variants at 100 and 200 µM (P<0.005)

Question: What about the “substrate cleavage, FRET assay” value (Peptide 99) of the same substance?
Answer: the peptides inhibited substrate cleavage in a peptide concentration-dependent manner

Question: And the “decrease in cleavage-based fluorescence” value (90-1-27)?
Answer: All of the MPs drastically reduced SpyCas9 substrate cleavage at 200 µM with a greater than 88% decrease in fluorescence

Question: What about the “substrate cleavage, denaturing 15% urea PAGE, peptide 200 µM” value (90-1-27) of the same substance?
Answer: 17 hits were identified that reduced fluorescence and substrate cleavage in the Cas9 cleavage reaction (visualized by Gel) at 200 µM

Question: What about the “decrease in cleavage-based fluorescence” value (63-2-87) of the same substance?
Answer: All of the MPs drastically reduced SpyCas9 substrate cleavage at 200 µM with a greater than 88% decrease in fluorescence

Question: And the “substrate cleavage, denaturing 15% urea PAGE, peptide 200 µM” value (63-2-87)?
Answer: 17 hits were identified that reduced fluorescence and substrate cleavage in the Cas9 cleavage reaction (visualized by Gel) at 200 µM

Question: What about the “decrease in cleavage-based fluorescence” value (99-2-2) of the same substance?
Answer: All of the MPs drastically reduced SpyCas9 substrate cleavage at 200 µM with a greater than 88% decrease in fluorescence

Question: And the “substrate cleavage, denaturing 15% urea PAGE, peptide 200 µM” value (99-2-2)?
Answer: 17 hits were identified that reduced fluorescence and substrate cleavage in the Cas9 cleavage reaction (visualized by Gel) at 200 µM

Question: And the “decrease in cleavage-based fluorescence” value (82-2-28)?
Answer: All of the MPs drastically reduced SpyCas9 substrate cleavage at 200 µM with a greater than 88% decrease in fluorescence

Question: And the “substrate cleavage, denaturing 15% urea PAGE, peptide 200 µM” value (82-2-28)?
Answer: 17 hits were identified that reduced fluorescence and substrate cleavage in the Cas9 cleavage reaction (visualized by Gel) at 200 µM

Question: What about the “% activity, FRET cleavage assay” value (Peptide 90) of the same substance?
Answer: Peptide 60, 90, and 91 significantly reduced activity of SauCas9 and SpyCas9 at 200 µM (P<0.005)

Question: And the “substrate cleavage, FRET assay” value (Peptide 90)?
Answer: the peptides inhibited substrate cleavage in a peptide concentration-dependent manner
